The values below come from patent publication US6867027B1, “RNA polymerase” (The Institute of Physical and Chemical Research, priority 1997, dated 2005).

“Also recorded” adds a separate entry of the source.

The nature of assay [1]: Inhibition of [α-32P]UTP incorporation by 3′-dATP in the transcription reaction (3′-dNTP incorporation rate). The format is biochemical. The conditions noted are these: compared with wild type T7 RNA polymerase. Here is the method:
Ribonucleotide (NTP) and 3′-deoxynucleotide (3′-dNTP) incorporation rates of the mutant T7 RNA polymerase purified in Example 7 were measured as follows.
pBluescript(KS+) plasmid (Stratagene) linearized by reaction with a restriction endonuclease, PvuII, was used as a template for the transcription reaction, and 250 μM each of ATP, CTP, GTP, and UTP, 2 mM of spermidine-(HCl)3, 5 mM of DTT, 40 mM Tris/HCl pH 8.0, 0.1 μl of [α-^32P] UTP (3000 Ci/mmole), and 25 units of the mutant T7 RNA polymerase F644Y/L665P/F667Y were also used for the reaction. For two kinds of reaction mixture (with or without 3′-dATP, final concentration was 100 μM), the reaction was performed at 37° C. for 60 minutes. The whole reaction mixture was spotted on DE81 paper (Whatman), washed three times with phosphate buffer, and dried. The DE81 paper was placed into a scintillation vial, and radioactivity was measured using a scintillation counter (Beckman) for each reaction. Degree of inhibition of the [α-^32P] UTP incorporation was calculated by comparing the values obtained with and without 3′-dATP based on the measured radioactivity. The relative activity obtained from calculated inhibition degree and defined as a relative value to the inhibition degree of the wild type T7 RNA polymerase normalized to 1.000 was shown in Table 1.
The inhibition degree was calculated by using the wild type T7 RNA polymerase, T7 RNA polymerase F644Y, L665P/F667Y obtained in Example 3, mutant T7 RNA polymerase F644Y/L665P, F782Y, F733Y, F646Y or Y639F constructed and purified in the same manner as in Examples 2 and 3 for the reaction instead of the above F644Y/L665P/F667Y mutant, and relative activities are shown in Table 1.
For example, it is meant that the mutant T7 RNA polymerase F644Y/L665P/F667Y is 5.58 times more likely to incorporate 31-dATP in comparison with the wild type enzyme.

Assay [2] concerns human thyroid-stimulating hormone (hTSH-β) cDNA PCR product. As to the kind of experiment: Transcriptional sequencing reaction on PCR product of hTSH-β cDNA (Example 9). The format is biochemical. The conditions noted are these: four dye terminators, PCR product template, FIG. 18. The procedure: As the template for PCR, human thyroid-stimulating hormone (hTSH-β) cDNA subcloned into a plasmid derived from BS750 having T7 promoter was used. By using this plasmid […] having hTSH-β with L220 primer (5′-TAACAATTTCACACAGGAAACA-3′ (SEQ ID NO:38)) and 1211 primer (5′-ACGTTGTAAAACGACGGCCAGT-3′ (SEQ ID NO:39)) existing at both sides of the cloning site, PCR reaction was performed in a reaction volume of 20 μl (1 cycle of 94° C. for 2 minutes, 30 cycles of 94° C. for 1 minute, 55° C. for 1 minute, and 72° C. for 1.5 minutes, followed by 72° C. for 5 minutes). The T7 promoter existed in the downstream of 1211 primer of the PCR product obtained from the above PCR reaction.
The transcriptional sequencing reaction was performed by the method of Melton, D. A, [Nucleic Acids Res., 12: 7035-7056 (1984)].
1 μl (about 10 ng) of the above PCR product was used for the sequencing reaction. […]
The dried reaction product was dissolved in 6 μl of formamide/EDTA/Blue dextran loading buffer according to the instruction manual Ver. 1.0 of ABI PRISM 377 DNA Sequencing System available from Perkin-Elmer Japan, and 2 μl of the solution was analyzed by ABI 377 DNA Sequencer and an analysis program (Sequencing Analysis Ver. 3.0) using denatured gel for sequencing analysis which contained 6M urea/4% Long Ranger™ acrylamide solution (FMC) to afford an electropherogram.

B1: F644Y/L665P/F667Y: mutant T7 RNA polymerase introduced with F644Y/L665P/F667Y mutations (protein)
chain: MNTINIAKNDFSDIELAAIPFNTLADHYGERLAREQLALEHESYEMGEARFRKMFERQLKAGEVADNAAAKPLITTLLPKMIARINDWFEEVKAKRGKRPTAFQFLQEIKPEAVAYITIKTTLACLTSADNTTVQAVASAIGRAIEDEARFGRIRDLEAKHFKKNVEEQLNKRVGHVYKKAFMQVVEADMLSKGLLGGEAWSSWHKEDSIHVGVRCIEMLIESTGMVSLHRQNAGVVGQDSETIELAPEYAEAIATRAGALAGISPMFQPCVVPPKPWTGITGGGYWANGRRPLALVRTHSKKALMRYEDVYMPEVYKAINIAQNTAWKINKKVLAVANVITKWKHCPVEDIPAIEREELPMKPEDIDMNPEALTAWKRAAAAVYRKDKARKSRRISLEFMLEQANKFANHKAIWFPYNMDWRGRVYAVSMFNPQGNDMTKGLLTLAKGKPIGKEGYYWLKIHGANCAGVDKVPFPERIKFIEENHENIMACAKSPLENTWWAEQDSPFCFLAFCFEYAGVQHHGLSYNCSLPLAFDGSCSGIQHFSAMLRDEVGGRAVNLLPSETVQDIYGIVAKKVNEILQADAINGTDNEVVTVTDENTGEISEKVKLGTKALAGQWLAYGVTRSVTKRSVMTLAYGSKEYGFRQQVLEDTIQPAIDSGKGPMYTQPNQAAGYMAKLIWESVSVTVVAAVEAMNWLKSAAKLLAAEVKDKKTGEILRKRCAVHWVTPDGFPVWQEYKKPIQTRLNLMFLGQFRLQPTINTNKDSEIDAHKQESGIAPNFVHSQDGSHLRKTVVWAHEKYGIESFALIHDSFGTIPADAANLFKAVRETMVDTYESCDVLADFYDQFADQLHESQLDKMPALPAKGNLNLRDILESDFAFA
Turning to B1, in assay [1], the “ability for incorporating 3′-dATP, 3′-dGTP, 3′-dCTP, 3′-dUTP and derivatives thereof” value is on record as “the least bias for the 3′-dATP incorporation among the mutant enzymes prepared; also recorded: markedly improved”. Further, the sequencing analysis result in assay [2] is “Excellent sequencing analysis was possible”.
